Source: US20260258115A1 (MAPP BIOPHARMACEUTICAL, published 2026)

B1: ADI-41452 (antibody, V domains shown)
VH: QVQLVQSGAELKKPGASVKVSCKASGHTFATYAIHWVRQAPGQSLEWLGWINTANGDTKYSQKFRATVTIHGDTSANTVYLELSRLRSEDTAVYYCASPPLVGAINLEFWGPGTLVTVSS
VL: QSVLTQPASVSGSVGQSITISCTGTSSDVGGYNSVSWYQHHPDKAPKLIIYEVSNRPSGVSHRFSGSKSGNTASLTISGLQAEDEADYYCSSYTTSDTLIFGGGTKVTVL
notes: IgG1; also called Ab 736
B2: ADI-41454 (antibody, V domains shown)
VH: QVQLVQSGAEVKKPGASVKVSCKASGYTFTHFGISWVRQAPGQGLEWMGWISIYNGNTNYAQKIQGRATMTTDASTSTAYMELRSLTSDDTAVYYCAREPPSTTAAATSDYWGQGTLVTVSS
VL: DIVMTQSPLSLPVTLGQPASISCRSSQSLVYIEGNTYLSWFQQRPGQSPRRLIYKVSNRDSGVPDRFSGSGSGTDFTLKISRVEAEDVGLYYCMQGTHWPRTFGQGTKLEIK
notes: IgG1; also called Ab 738
B3: ADI-41421 (antibody, V domains shown)
VH: QVQLVESAAEVKRPGASLKVSCKASGYTFIDYDISWVRQAPGQGLDWMGWISTYDGSAKYPENLQARVAMTTDTSTSTAYMELESLTSDDTAVYYCARARRGSSGWVSTTGPTPFFDYWGRGTLVTVSS
VL: SYELTQPPSVSVSPGQTARITCSGDALPKRYAYWYQQKSGQAPVLVIYEDNKRPSGIPERFSGSSSGTVATLTISGAQVEDEADYSCYSTDATGNHRGLFGGGTKLTVL
notes: IgG1
B4: ADI-21080 (antibody, V domains shown)
VH: EVQLLESGGGLVKPGGSLRLSCEVSGFRLSDYYMSWIRQAPGKGLEWVSHISGGSTYTNYADSVKGRFTISRDNGKKSMYLQMNSLRAEDTALYYCAKWGSGGPEAFDIWGRGTMVTVSS
VL: QSALIQPPSVSGAPGQRVTISCTGSSSNIGAGYDVHWYQQIPGTAPKLLIYGNNNRPSGVPDRFSGSKSGTSASLAITGLQAEDEADYYCQSYDNSLSGSVVFGGGTKLTVL
B5: ADI-41449 (antibody, V domains shown)
VH: EVQLVESGGGLVKPGGSLRLSCAASGFSFSSYRVNWVRQAPGKGLEWVSSITGGSSFIDYADSVKGRFTISRDNAKNSLFLQMNSLRAEDTAVYFCARDSMTTVTNSLAFDIWGQGTMVTVSS
VL: QSVLTQPPSVSGAPGQRVTISCTGSSSNIGVGYDVQWYQQLPGTAPKLLIYSNNKRPSGVPDRFSGSKSGTSASLAITGLQAEDEADYYCQSYDRSLSVVFGGGTKVTVL
notes: IgG1
B6: ADI-41450 (antibody, V domains shown)
VH: EVQLVESGGGLVKPGGSLRLSCAASGFAFSSYGINWVRQVPGKRLEWVSSISGGSSFINYADSVKGRFTISRDNAGNSVYLQMNSLRAEDTAVYFCARESYGSGSSLNWFDPWGQGTLVTVSS
VL: QSVLTQPPSVSGAPGQRVTISCTGSGSNIGAGYDVHWYQQLPGIAPRLVIFGNRNRPSGVPDRISGSKSDTSASLAITGLQAEDEGDYYCQSYDKRLSGWVFGGGTKLTVL
notes: IgG1
B7: ADI-41447 (antibody, V domains shown)
VH: EVQLLESGGGLVQPGGSLRLSCAASGFTFSTYAMNWVRQAPGKGLEWVSTISGSGGSTYYGDSVKGRFTISRDNSKNTLYLQMNSLRAEDTAVYYCAKAPTPWCSGGSCYVSYWGQGTLVTVSS
VL: DIVMTQTPGTLSLSPGERGTLSCRASQSVSSSYLAWYQQKPGQAPRLLIYGASSRATGIPDRFGGSGSGTDFTLTISTLEPEDFAVYYCQQYQSSPWTFGQGTKLEIK
notes: IgG1
B8: ADI-41787 (antibody, V domains shown)
VH: EVQLLESGGGVVQPGRSLRLSCAASGFTFSSSGMHWVRQAPGKGLEWVAIISSDGSKHYYADSVKGRFTISRDNSKNTLYLEMNSLRAEDSAVYYCAREGVWSGFFVDTGTDFRHHGMDVWGQGTTVTVSS
VL: SYELTQPPSVSVSPGQTARITCSGDALPKKFAFWYQQKSGQAPLLVIHEDNKRPSGIPERFSGSSSGTLATLTISGAQVEDEADYYCYSIDTSANLGVFGGGTKLTVL
B9: ADI-21069 (antibody, V domains shown)
VH: EVQLVESGAEVRKPGASVKVSCKASGYTFSSNAISWVRQAPGQGLEWMGYISVFNGNTKYAQNLQGRVTMTTDTATSTVYMELRSLRYDDTAIYYCARESLGMGGFYFDHWGQGTLVTVSS
VL: SYELTQPPSVSVAPGQTARITCGANNIGSDSVHWYQQKPGQAPVLVVFDDRDRPSGIPERFSGSNSGNTATLTISRVEAGDEADYYCQVWMTSDRSVFGGGTKLTVL
B10: ADI-41756 (antibody, V domains shown)
VH: EVQLLESGGGVVQPGRSLRLSCAASGLSFNSFGMHWVRQAPGKGLEWVAVIAYDGSNKYYADSVKGRFSISRDNSKNTLYLQMDSLRAEDTAVYYCAKAEAPNFSWSGYLSAFDIWGQGTTVTVSS
VL: QPVLTQPASVSGSPGQSVTVSCTGTSDDVGDYNYVSWYQQHPGKAPKLLIFEVSDRPSGVSTRFSGSKSGNTASLTISGLQTEDEADYYCSSYTSRNLYVFGTGTKVTVL
B11: ADI-41434 (antibody, V domains shown)
VH: EVQLVESGGGLVQPGRSLRLSCEASGFTFDDYAMHWVRQTPGKGLEWVSGISWNSGSIVYADSVKGRFTISRDNAKNSLYLQMHSLRPEDTALYYCAKDNYTFGNYYYYYGMDVWGQGTTVTVSS
VL: EIVLTQSPVTLSVSPGERATLSCRASQNVISNLAWYQQKPGQAPRLLIYGASTRATGIPARFSGSGSGTEFTLTISSLQSEDFAVYYCQQYNNWPLSFGGGTKVEIK
notes: IgG1; also called Ab 718
B12: ADI-41442 (antibody, V domains shown)
VH: EVQLLESGGGLVQPGRSLRLSCAASGFTFDDYAMHWVRQAPGKGLEWVSGISWHSGSIVYADSVKGRFTISRDNAKNSLYLQMSSLRAEDTALYYCVKDHYNWNDNPHFHYGLDVWGQGTTVTVSS
VL: EIVLTQSPATLSVSPGERATLSCRASQSVISNLAWYQQKPGQAPRLFIYGASTRATGIPARFSGSGSGTEFTLTISSLQSEDFAVYFCQQYNNWPITFGQGTRLEIK
notes: IgG1; also called Ab 726
B13: ADI-21078 (antibody, V domains shown)
VH: EVQLVESGGGLVKPGGSLRLSCAASGFRLSDYYMSWIRQAPGKGLEWISDISGGSTYTNYADSVKGRLTISRDNAQNSLYLQMNSLRAEDTAVYYCARWGSGGPDAFHFWGQGTTVTVSS
VL: QSVLTQPPSVSGVPGQRVTISCTGSRSNIGAGYDVHWYRQLPGTAPKLLIYGNSNRPSGVPDRFSGSKSGTSASLAITGLQADDEADYYCQSYDSSLSGSVIFGGGTKVTVL

Legend:
[1] = biological target: RSV postfusion F (postF), F deltaFP (respiratory syncytial virus, UniProt P03420 26-513); test: BLI, IgG on sensor
[2] = biological target: RSV fusion glycoprotein (RSV F) on RSV-A2 virus (respiratory syncytial virus, UniProt P03420 26-574); test: cell-based or functional assay
[3] = biological target: RSV prefusion F (preF), DS-Cav1 (respiratory syncytial virus, UniProt P03420 26-513); test: BLI, IgG on sensor, 100 nM antigen
[4] = biological target: RSV F on recombinant mKate-RSV A2 virus (Respiratory syncytial virus A2, UniProt P03420 26-574); test: cell-based or functional assay
[5] = biological target: RSV F on recombinant mKate-RSV B 18537 virus (Respiratory syncytial virus B 18537, UniProt P13843 26-574); test: cell-based or functional assay
[6] = biological target: RSV prefusion F, subtype A (preF, DS-Cav1 trimer) (Respiratory syncytial virus subtype A, UniProt P03420 26-513); test: BLI, IgG apparent affinity
[7] = biological target: RSV prefusion F (preF), DS-Cav1 (Respiratory syncytial virus, UniProt P03420 26-513); test: BLI, IgG on anti-human IgG sensor, 100 nM antigen
[8] = biological target: RSV postfusion F (postF), F ΔFP (Respiratory syncytial virus, UniProt P03420 26-513); test: BLI, IgG on anti-human IgG sensor
RSV F on RSV-A2 virus = RSV F on RSV-A2 virus (Respiratory syncytial virus, RSV-A2, UniProt P03420 26-574); test: cell-based or functional assay

Binder	binding result [1]	Neutralization IC50 (RSV subtype A) [2] [µg/mL]	Kd [3] [nM]	also measured
B1	no binding (tested: 100 nM antigen)	> 25	3.33	
B2	no binding (tested: 100 nM antigen)	0.88	0.588	
B3	no binding (tested: 100 nM antigen)	4.78	2.52	
B4				Neut IC50 (ug/ml) subtype A [4]: 0.1 µg/mL; Neut IC50 (ug/ml) subtype B [5]: 0.17 µg/mL; Kd [6]: 0.36 nM
B5	no binding (tested: 100 nM antigen)	0.16	0.508	
B6	no binding (tested: 100 nM antigen)	0.21	0.613	
B7	no binding (tested: 100 nM antigen)	> 25	54.1	
B8				Kd [7]: 1.56 nM; binding result [8]: no binding (tested: 100 nM antigen); Neutralization IC50 (RSV subtype A) (RSV F on RSV-A2 virus): 0.38 µg/mL
B9				Neut IC50 (ug/ml) subtype A [4]: 0.11 µg/mL; Neut IC50 (ug/ml) subtype B [5]: 0.26 µg/mL; Kd [6]: 0.123 nM
B10				Kd [7]: 29 nM; binding result [8]: no binding (tested: 100 nM antigen); Neutralization IC50 (RSV subtype A) (RSV F on RSV-A2 virus): > 25 µg/mL
B11	no binding (tested: 100 nM antigen)	> 25	0.613	
B12	no binding (tested: 100 nM antigen)	0.04	0.521	
B13				Neut IC50 (ug/ml) subtype A [4]: 0.03 µg/mL; Neut IC50 (ug/ml) subtype B [5]: 0.2 µg/mL; Kd [6]: 0.311 nM
